{"source": "patent US20200283539A1", "molecular_target": "CD33 on HL60 leukemia cells (human) (UniProt P20138)", "sequence (P20138 18-364 limits assumed)": "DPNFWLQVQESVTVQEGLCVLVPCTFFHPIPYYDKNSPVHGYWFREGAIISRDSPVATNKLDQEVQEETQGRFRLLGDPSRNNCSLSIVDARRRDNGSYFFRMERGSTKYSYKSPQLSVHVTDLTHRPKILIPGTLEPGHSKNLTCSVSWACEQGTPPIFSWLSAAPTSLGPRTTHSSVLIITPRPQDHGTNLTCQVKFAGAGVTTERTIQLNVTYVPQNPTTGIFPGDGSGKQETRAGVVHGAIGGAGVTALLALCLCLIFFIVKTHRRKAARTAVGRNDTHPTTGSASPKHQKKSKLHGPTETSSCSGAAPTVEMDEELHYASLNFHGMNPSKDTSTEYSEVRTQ", "assay": "cell-based or functional assay", "data": [{"substance": "Lintuzumab conjugated with Actinium-225 (antibody)", "values": [{"measurement": "LD50 (dose at which 50% of the cells were killed), HL60 cell suspension", "value": 8, "unit": "pCi/mL"}]}]}
